Source: patent US20090053241A1 (Eli Lilly, published 2009)
Blank lines part the entries; values can stand above or below the binder they belong to.

Experiments:
[1] = target: mouse PDGFRβ on cells (NIH/3T3, D122, 4T1, B16) (mouse, UniProt P05622 32-1098); experiment: cell-based or functional assay
[2] = target: human PDGFRβ, cell-surface-expressed receptor on human tumor cell lines (human, UniProt P09619 33-1106); experiment: cell-based or functional assay
[3] = target: T1, human PDGFRβ (soluble recombinant protein) (human, UniProt P09619 33-530, limits assumed); experiment: ELISA, panel 'BINDING TO hPDGFRβ'
T1 construct: the construct is not described; also called hPDGFRβ
T1 sequence (P09619 33-530 limits assumed): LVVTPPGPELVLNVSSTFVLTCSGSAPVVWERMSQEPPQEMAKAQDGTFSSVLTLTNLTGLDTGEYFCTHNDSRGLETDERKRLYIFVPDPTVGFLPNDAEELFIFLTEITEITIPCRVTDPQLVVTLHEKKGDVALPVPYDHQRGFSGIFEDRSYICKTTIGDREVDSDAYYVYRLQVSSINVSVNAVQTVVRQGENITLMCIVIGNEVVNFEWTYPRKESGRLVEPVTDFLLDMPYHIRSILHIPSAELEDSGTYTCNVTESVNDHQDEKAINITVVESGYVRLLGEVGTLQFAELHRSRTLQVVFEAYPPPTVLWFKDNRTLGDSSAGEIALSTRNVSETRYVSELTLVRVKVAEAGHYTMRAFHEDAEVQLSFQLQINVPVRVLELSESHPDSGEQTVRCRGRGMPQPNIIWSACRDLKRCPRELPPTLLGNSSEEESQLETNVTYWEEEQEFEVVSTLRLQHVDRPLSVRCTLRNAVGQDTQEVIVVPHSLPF

mPDGFRβ/Fc [4] = target: T2, mPDGFRβ/Fc (mouse, UniProt P05622 32-530, limits assumed); experiment: ELISA, panel 'BINDING TO mPDGFRβ'
T2 construct: The methods say 'mPDGFRβ' for ELISA plates and the BIAcore chip; also called murine PDGFRβ; mouse PDGFRβ; not shown: Fc part; detected with a goat anti-human Fc antibody
T2 sequence (looked up): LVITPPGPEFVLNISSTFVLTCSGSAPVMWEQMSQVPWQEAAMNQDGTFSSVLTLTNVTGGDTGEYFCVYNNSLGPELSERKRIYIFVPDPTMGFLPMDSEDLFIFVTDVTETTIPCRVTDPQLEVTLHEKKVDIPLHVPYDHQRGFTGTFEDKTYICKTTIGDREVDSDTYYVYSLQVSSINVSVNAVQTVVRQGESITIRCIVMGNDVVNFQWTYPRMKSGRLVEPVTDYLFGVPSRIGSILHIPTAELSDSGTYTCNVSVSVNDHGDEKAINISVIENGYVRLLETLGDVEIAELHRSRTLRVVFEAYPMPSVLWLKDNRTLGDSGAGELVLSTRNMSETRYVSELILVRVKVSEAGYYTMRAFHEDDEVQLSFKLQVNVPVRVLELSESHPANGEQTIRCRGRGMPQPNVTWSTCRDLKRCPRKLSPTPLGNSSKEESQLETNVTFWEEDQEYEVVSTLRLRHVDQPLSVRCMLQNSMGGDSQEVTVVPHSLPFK

[5] = target: T1, human PDGFRβ (soluble recombinant …); experiment: blocking of PDGF-BB binding to hPDGFRβ (FIG. 6)
mPDGFRβ/Fc [6] = target: T2, mPDGFRβ/Fc; experiment: blocking of PDGF-BB binding to mPDGFRβ (FIG. 6)
h5β [7] = target: T3, h5β (human, UniProt P09619 33-530, limits assumed); experiment: ELISA (OD450), panel '2C5 BINDING TO PDGFRβ/α CHIMERAS'; axis 'CO…ON (nM)', titrated species not stated
T3 construct: domain: domains 1-5 (read from the label); read as human PDGFRβ with all five domains
T3 sequence (P09619 33-530 limits assumed): as the sequence (P09619 33-530 limits assumed) above

h5β [8] = target: T3, h5β; experiment: ELISA (OD450), panel '2C5 BINDING TO hPDGFRβ DELETIONS'; axis 'CO…ON (nM)', titrated species not stated
[9] = target: T4, β1-2 (shorter version of PDGFRβ, D1D2); experiment: as above
T4 construct: domain: D1D2

[10] = target: T5, β1-3 (shorter version of PDGFRβ, D1D2D3); experiment: as above
T5 construct: domain: D1D2D3

mPDGFRβ/Fc [11] = target: T2, mPDGFRβ/Fc; experiment: ELISA on mPDGFRβ/Fc-coated plate (1 µg/ml), detection with goat anti-human-κ antibody-HRP
Protocol: (§1) Plate-bound antibodies were detected with a goat anti-human-κ antibody-HRP. […] IMC-1121 is an antibody directed against human VEGFR2. Data represent the mean±SD of triplicate samples.
(§2) Quantitative receptor binding and blocking assays. […] The plates were then incubated at RT for an additional 1 h with a goat anti-human-κ antibody-horse radish peroxidase (HRP) conjugate (Jackson ImmunoResearch, West Grove, Pa.). The plates were washed and developed as previously described (Lu, D. et al., 2002; Zhu, Z. et al., 1998). […] After washing 3 times with PBST, the plates were incubated with a goat anti-human Fc antibody-HRP conjugate (Jackson ImmunoResearch) for 1 h, and developed as described (Lu, D. et al., 2002; Zhu, Z. et al., 1998; Loizos, N. et al., 2005).

mPDGFRβ/Fc [12] = target: T2, mPDGFRβ/Fc; experiment: SPR (BIAcore), mPDGFRβ immobilized
Protocol: Antibody affinity determination. […] Sensorgrams were obtained at each concentration and were evaluated using the program, BIA Evaluation 2.0. The affinity constant, Kd, was calculated from the ratio of dissociation rate (koff)/association rate (kₒₙ) (Lu, D. et al., 2002; Zhu, Z. et al., 1998; Loizos, N. et al., 2005).

mPDGFRβ/Fc [13] = target: T2, mPDGFRβ/Fc; experiment: direct binding ELISA on mPDGFRβ/Fc-coated plates (printed as IC50; FIG. 1A)
Protocol: as §1, §2

mPDGFRβ/Fc [14] = target: T2, mPDGFRβ/Fc; experiment: blocking ELISA: antibody mixed with mPDGFRβ/Fc, PDGF-BB-coated plates (FIG. 1B)
Protocol: as §1, §2

mPDGFRβ/Fc [15] = target: T2, mPDGFRβ/Fc; experiment: blocking ELISA, panel 'BLOCKING PDGF-BB BINDING TO mPDGFRβ'; blocked ligand PDGF-BB
mPDGFRβ/Fc [16] = target: T2, mPDGFRβ/Fc; experiment: blocking ELISA: Fab mixed with mPDGFRβ/Fc, PDGF-BB-coated plates (FIG. 1B)
Protocol: as §1, §2

Sequence of human PDGFRβ, cell-surface-expressed receptor on human tumor cell lines (P09619 33-1106): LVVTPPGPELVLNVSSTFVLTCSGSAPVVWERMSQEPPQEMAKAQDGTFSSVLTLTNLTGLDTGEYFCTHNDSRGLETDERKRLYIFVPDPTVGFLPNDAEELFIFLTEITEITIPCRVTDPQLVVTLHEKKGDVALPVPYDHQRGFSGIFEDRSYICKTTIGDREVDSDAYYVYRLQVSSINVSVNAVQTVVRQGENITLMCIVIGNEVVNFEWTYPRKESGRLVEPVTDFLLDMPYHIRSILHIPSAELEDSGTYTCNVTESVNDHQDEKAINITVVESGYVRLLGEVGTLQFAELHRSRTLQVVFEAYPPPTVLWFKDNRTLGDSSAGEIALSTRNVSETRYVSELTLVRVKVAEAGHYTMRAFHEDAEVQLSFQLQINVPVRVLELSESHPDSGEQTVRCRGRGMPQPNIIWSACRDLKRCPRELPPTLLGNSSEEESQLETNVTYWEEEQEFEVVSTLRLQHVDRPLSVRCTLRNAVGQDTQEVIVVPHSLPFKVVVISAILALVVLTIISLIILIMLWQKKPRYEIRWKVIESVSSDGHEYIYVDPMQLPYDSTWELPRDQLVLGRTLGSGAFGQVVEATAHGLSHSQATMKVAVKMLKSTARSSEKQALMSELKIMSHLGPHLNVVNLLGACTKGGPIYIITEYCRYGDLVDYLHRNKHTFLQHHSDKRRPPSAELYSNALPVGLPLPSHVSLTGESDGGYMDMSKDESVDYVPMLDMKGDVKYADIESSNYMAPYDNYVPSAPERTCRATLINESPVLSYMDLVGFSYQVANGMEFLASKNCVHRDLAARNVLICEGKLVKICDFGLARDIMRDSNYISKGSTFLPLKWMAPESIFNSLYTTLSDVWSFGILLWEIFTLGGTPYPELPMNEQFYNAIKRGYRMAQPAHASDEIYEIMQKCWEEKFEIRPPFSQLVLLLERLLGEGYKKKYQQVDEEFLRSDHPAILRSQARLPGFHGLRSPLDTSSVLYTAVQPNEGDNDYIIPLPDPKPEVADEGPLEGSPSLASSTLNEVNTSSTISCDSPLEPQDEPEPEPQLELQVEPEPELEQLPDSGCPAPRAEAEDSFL

B3: 1B3 IgG (full-length human anti-mouse PDGFRβ antibody) (antibody, V domains shown)
VH: QVQLQESGGGLVKPGGSLRLSCAASGFTFSSYSMNWVRQAPGKGLEWVSSISSSSSYIYYADSVKGRFTISRDNSKNTLYLQMNSLRAEDTAVYYCAKGGRPLLVFDFWGQGTLVTVS
VL: EIVMTQSPGTLSLSPGERATLSCRASQSVSSSYLAWYQQKPGQAPRLLIYDASKRATGIPARFSGSGSGTDFTLTISTLESEDSAVYYCQQRGYWPPITFGQGTRLEIKR
notes: also called 1B3 antibody; anti-mPDGFRβ antibody 1B3
Kd (mPDGFRβ/Fc [12]): 0.09 nM
fold increase in affinity over its Fab form (mPDGFRβ/Fc [12]): ~57 times
binding result [3]: no binding (tested: about 1e-8 M)
EC50 (read off the curve) (mPDGFRβ/Fc [4]): ~0.07 nM
EC50 (mPDGFRβ/Fc [13]): 0.34 nM
IC50 (mPDGFRβ/Fc [14]): 1.2 nM
IC50 (mPDGFRβ/Fc [15]): 0.37 nM

B4: 1B3 Fab (Fab, V domains shown)
VH: QVQLQESGGGLVKPGGSLRLSCAASGFTFSSYSMNWVRQAPGKGLEWVSSISSSSSYIYYADSVKGRFTISRDNSKNTLYLQMNSLRAEDTAVYYCAKGGRPLLVFDFWGQGTLVTVS
VL: EIVMTQSPGTLSLSPGERATLSCRASQSVSSSYLAWYQQKPGQAPRLLIYDASKRATGIPARFSGSGSGTDFTLTISTLESEDSAVYYCQQRGYWPPITFGQGTRLEIKR
notes: also called 1B3 Fab fragment; clone 1B3
Kd (mPDGFRβ/Fc [12]): 5.1 nM
IC50 (mPDGFRβ/Fc [16]): 4.1 nM
EC50 (mPDGFRβ/Fc [13]): 1.3 nM

Now from value to binder:

PDGFRβ phosphorylation in mouse NIH/3T3 and D122 cell lines, IC50 [1]: < 1.8 µg/mL
PDGFRβ phosphorylation in human Caki-1 tumor cells, IC50 [2]: < 1.8 µg/mL
EC50 (read off the curve) [3]: ~0.1 nM
EC50 (read off the curve) (mPDGFRβ/Fc [4]): ~0.1 nM
IC50 [5]: 0.55 nM
IC50 (mPDGFRβ/Fc [6]): 0.35 nM
EC50 (read off the curve) (h5β [7]): ~0.05 nM
EC50 (read off the curve) (h5β [8]): ~0.06 nM
EC50 (read off the curve) [9]: ~0.1 nM
EC50 (read off the curve) [10]: ~0.07 nM
B1: 2C5 (human anti-PDGFRβ antibody) (antibody, V domains shown)
VH: QVQLVQSGAEVKKPGSSVKVSCKASGGTFSSYAISWVRQAPGQGLEWMGRIIPILGIANYAQKFQGRVTITADKSTSTAYMELSSLRSEDTAVYYCARDMGSRNYYYFYWGQGTLVTVSS
VL: EIVLTQSPATLSLSPGERATLSCRASQSVGRYLAWYQQKPGQAPRLLIYGASNRATGIPARFSGSGSGTDFTLTISSLEPEDFAVYYCQQRSNWPLTFGGGTKVEIKR
notes: also called 2C5 antibody; anti-PDGFRβ antibody 2C5

binding result (mPDGFRβ/Fc [11]): no binding (tested: 10 nM)
B2: 1121 IgG (antibody, V domains shown)
VH: EVQLVQSGGGLVKPGGSLRLSCAASGFTFSSYSMNWVRQAPGKGLEWVSSISSSSSYIYYADSVKGRFTISRDNAKNSLYLQMNSLRAEDTAVYYCARVTDAFDIWGQGTMVTVSS
VL: DIQMTQSPSSVSASIGDRVTITCRASQGIDNWLGWYQQKPGKAPKLLIYDASNLDTGVPSRFSGSGSGTYFTLTISSLQAEDFAVYFCQQAKAFPPTFGGGTKVDIK
notes: The sheet prints '1121 IgG'; also called IMC-1121; antibody directed against human VEGFR2
